Legend:
[1] = biological target: T1, EGFR-AP fusion protein (UniProt P00533 25-645); assay: BIAcore SPR, EGFR-AP immobilised on the chip; koff/kon
T1 construct: Immobilised on the BIAcore sensor chip; Neither the species nor the residues of the EGFR part are stated
Experimental: (§1) Sensorgrams were obtained at each concentration and were analyzed with BIA Evaluation 2.0, a program to determine the rate constants, kₒₙ and koff. The affinity constant, Kd, was calculated from the ratio of rate constants, koff/kₒₙ.

[2] = biological target: T1, EGFR-AP fusion protein; assay: BIAcore SPR, EGFR-AP immobilised on the chip
Experimental: as §1

| Binder | Kd [1] [nM] | koff [2] [s⁻¹] | kon [2] [M⁻¹ s⁻¹] |
| --- | --- | --- | --- |
| IMC-11F8 Fab (Fab, V domains shown) VH: QVQLQESGPGLVKPSQTLSLTCTVSGGSISSGDYYWSWIRQPPGKGLEWIGYIYYSGSTDYNPSLKSRVTMSVDTSKNQFSLKVNSVTAADTAVYYCARVSIFGVGTFDYWGQGTLVTVSS VL: EIVMTQSPATLSLSPGERATLSCRASQSVSSYLAWYQQKPGQAPRLLIYDASNRATGIPARFSGSGSGTDFTLTISSLEPEDFAVYYCHQYGSTPLTFGGGTKAEIK | 1.78 | 0.00367 | 2.29e+06 |
| IMC-11F8 (full human IgG1 anti-EGFR antibody) (antibody, V domains shown, also called IMC-C11F8; 11F8 monoclonal antibody) VH: QVQLQESGPGLVKPSQTLSLTCTVSGGSISSGDYYWSWIRQPPGKGLEWIGYIYYSGSTDYNPSLKSRVTMSVDTSKNQFSLKVNSVTAADTAVYYCARVSIFGVGTFDYWGQGTLVTVSS VL: EIVMTQSPATLSLSPGERATLSCRASQSVSSYLAWYQQKPGQAPRLLIYDASNRATGIPARFSGSGSGTDFTLTISSLEPEDFAVYYCHQYGSTPLTFGGGTKAEIK | 0.32 | 0.00058 | 1.86e+06 |

— patent publication US20070264253A1 (Eli Lilly, published 2007)
